Data published in publication PMC10506485, “Human astrovirus capsid protein releases a membrane lytic peptide upon trypsin maturation” (Journal of Virology, 2023).

B1: HAstV8 VP90^14-782 (domain or fragment)
chain: NNNGRSRSKSRARSQSRGRGRSVKITVNSHNKGRRQNGRNKYQSNQRVRKIVNKQLRKQGVTGPKPAICQTATATLGTIGSNTTGATEIEACILLNPVLVKDATGSTQFGPVQALGAQYSMWKLKYLNVRLTSMVGASAVNGTVVRISLNPTSTPSSTSWSGLGARKHLDVTVGKNAVFKLKPSDLGGPRDGWWLTNTNDNASDTLGPSIEIHTLGQTMSSYQNTQFTGGLFLVELSSAWCFTGYAANPNLVNLVKSTDKSVNVTFEGSAGTPLIMNVPEHSHFARTAVEHSSLSTSLSRAGGESSSDTVWQVLNTAVSAAELVTPPPFNWLVKGGWWFVKLIAGRARTGARRFYVYLSYQDALSNKPALCTGGVPASARQSNPVRTTLQFTQMNQPSLGHGATPMTFGRSIPEPGEQFRVLLTVGPPMAPNTANSQNWVNKTIVPPENQYTVKIGIDLEHYTTMQGFTPVESVSWYTADFQPSDEPSPIPGLYARVNNTKKADVYGVQQFKSSHTNNRHQITSVFLVRVTTSFQVINYTSYFIRGAESGSNVSNLKIRDQTYHTPLQFTQGKWYLLTSTVMHDGPTSSGWVWMNQELTNNIAYRVDPGMMYLITPPPAASQLYFELHTVLPQARSEEPETYVDAPLPEEPPIEEEETDSDFESTEDENDEVDRFDLHPSSESDDDDVENDRATLLSTLLNQGISVERATRITNGAFPTRAARVRRSVYNDLLVSGLSPGAAWSHACEQARRAGDNHDLQLSGSRDHAE
notes: Capsid polyprotein precursor VP90 of human astrovirus serotype 8 (strain Yuc8), residues 14-782, N-terminal truncation; The results name the vector pET28a, the methods pET-SUMOc with an N-terminal 6xHis-SUMO tag; also called aa14–782; source: E. coli (Rosetta 2 (DE3) or BL21), purified (HisTrap, Superdex size exclusion)
B2: HAstV8 VP90^28-782 (domain or fragment)
chain: QSRGRGRSVKITVNSHNKGRRQNGRNKYQSNQRVRKIVNKQLRKQGVTGPKPAICQTATATLGTIGSNTTGATEIEACILLNPVLVKDATGSTQFGPVQALGAQYSMWKLKYLNVRLTSMVGASAVNGTVVRISLNPTSTPSSTSWSGLGARKHLDVTVGKNAVFKLKPSDLGGPRDGWWLTNTNDNASDTLGPSIEIHTLGQTMSSYQNTQFTGGLFLVELSSAWCFTGYAANPNLVNLVKSTDKSVNVTFEGSAGTPLIMNVPEHSHFARTAVEHSSLSTSLSRAGGESSSDTVWQVLNTAVSAAELVTPPPFNWLVKGGWWFVKLIAGRARTGARRFYVYLSYQDALSNKPALCTGGVPASARQSNPVRTTLQFTQMNQPSLGHGATPMTFGRSIPEPGEQFRVLLTVGPPMAPNTANSQNWVNKTIVPPENQYTVKIGIDLEHYTTMQGFTPVESVSWYTADFQPSDEPSPIPGLYARVNNTKKADVYGVQQFKSSHTNNRHQITSVFLVRVTTSFQVINYTSYFIRGAESGSNVSNLKIRDQTYHTPLQFTQGKWYLLTSTVMHDGPTSSGWVWMNQELTNNIAYRVDPGMMYLITPPPAASQLYFELHTVLPQARSEEPETYVDAPLPEEPPIEEEETDSDFESTEDENDEVDRFDLHPSSESDDDDVENDRATLLSTLLNQGISVERATRITNGAFPTRAARVRRSVYNDLLVSGLSPGAAWSHACEQARRAGDNHDLQLSGSRDHAE
notes: Capsid polyprotein precursor VP90 of human astrovirus serotype 8 (strain Yuc8), residues 28-782, N-terminal truncation; The results name the vector pET28a, the methods pET-SUMOc with an N-terminal 6xHis-SUMO tag; Forms rod-shaped assemblies of about 20 nm diameter and variable length; also called aa28–782; source: E. coli (Rosetta 2 (DE3) or BL21), purified (HisTrap, Superdex-200 size exclusion)
B3: HAstV8 VP90^72-782 (domain or fragment)
chain: QGVTGPKPAICQTATATLGTIGSNTTGATEIEACILLNPVLVKDATGSTQFGPVQALGAQYSMWKLKYLNVRLTSMVGASAVNGTVVRISLNPTSTPSSTSWSGLGARKHLDVTVGKNAVFKLKPSDLGGPRDGWWLTNTNDNASDTLGPSIEIHTLGQTMSSYQNTQFTGGLFLVELSSAWCFTGYAANPNLVNLVKSTDKSVNVTFEGSAGTPLIMNVPEHSHFARTAVEHSSLSTSLSRAGGESSSDTVWQVLNTAVSAAELVTPPPFNWLVKGGWWFVKLIAGRARTGARRFYVYLSYQDALSNKPALCTGGVPASARQSNPVRTTLQFTQMNQPSLGHGATPMTFGRSIPEPGEQFRVLLTVGPPMAPNTANSQNWVNKTIVPPENQYTVKIGIDLEHYTTMQGFTPVESVSWYTADFQPSDEPSPIPGLYARVNNTKKADVYGVQQFKSSHTNNRHQITSVFLVRVTTSFQVINYTSYFIRGAESGSNVSNLKIRDQTYHTPLQFTQGKWYLLTSTVMHDGPTSSGWVWMNQELTNNIAYRVDPGMMYLITPPPAASQLYFELHTVLPQARSEEPETYVDAPLPEEPPIEEEETDSDFESTEDENDEVDRFDLHPSSESDDDDVENDRATLLSTLLNQGISVERATRITNGAFPTRAARVRRSVYNDLLVSGLSPGAAWSHACEQARRAGDNHDLQLSGSRDHAE
notes: Capsid polyprotein precursor VP90 of human astrovirus serotype 8 (strain Yuc8), residues 72-782, N-terminal truncation; The results name the vector pET28a, the methods pET-SUMOc with an N-terminal 6xHis-SUMO tag; also called aa72–782; source: E. coli (Rosetta 2 (DE3) or BL21), purified (HisTrap, Superdex size exclusion)

Biological target: the molecule itself
Test: SEC; Superdex-200 or Superdex-75 size exclusion column; 50 mM Tris-HCl pH 8.0, 150 mM NaCl, 1 mM NaN3; self-association judged from the elution profile

Protein	binding result	stoichiometry N
B1	binds	
B2	binds	
B3		2
